Consider nine molecules from patent publication US10428140B2, “Anti-EphA4 antibody” (EISAI R&D MANAGEMENT CO., LTD., priority 2015, dated 2019).

Substitutions are numbered along the chain they refer to.

First the molecules themselves.
T1: human EphA10 (Homo sapiens, UniProt Q5JZY3)
T1 construct: a protein of the extracellular region of each human Eph receptor fused with the SEAP protein and the His tag; made in house; host or cells: Expi293F cells (culture supernatant)
T1 sequence (Q5JZY3 34-565 limits assumed): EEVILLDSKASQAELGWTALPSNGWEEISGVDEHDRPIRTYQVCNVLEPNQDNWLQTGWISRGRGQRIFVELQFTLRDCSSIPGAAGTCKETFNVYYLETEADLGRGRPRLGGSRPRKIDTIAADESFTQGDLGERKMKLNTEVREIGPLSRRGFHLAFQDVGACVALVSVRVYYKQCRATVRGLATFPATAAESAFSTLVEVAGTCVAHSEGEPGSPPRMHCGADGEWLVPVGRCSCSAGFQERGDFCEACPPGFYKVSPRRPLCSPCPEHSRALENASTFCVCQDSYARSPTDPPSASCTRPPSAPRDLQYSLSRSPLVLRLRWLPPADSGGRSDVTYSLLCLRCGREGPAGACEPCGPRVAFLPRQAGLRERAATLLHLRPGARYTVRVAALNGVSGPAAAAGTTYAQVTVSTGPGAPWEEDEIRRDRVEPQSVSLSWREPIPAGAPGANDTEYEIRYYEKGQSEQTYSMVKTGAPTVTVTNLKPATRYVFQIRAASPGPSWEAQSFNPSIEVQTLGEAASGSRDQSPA

T2: human EphB6 (Homo sapiens, UniProt O15197)
T2 construct: a protein of the extracellular region of each human Eph receptor fused with the SEAP protein and the His tag; made in house; host or cells: Expi293F cells
T2 sequence (O15197 32-594 limits assumed): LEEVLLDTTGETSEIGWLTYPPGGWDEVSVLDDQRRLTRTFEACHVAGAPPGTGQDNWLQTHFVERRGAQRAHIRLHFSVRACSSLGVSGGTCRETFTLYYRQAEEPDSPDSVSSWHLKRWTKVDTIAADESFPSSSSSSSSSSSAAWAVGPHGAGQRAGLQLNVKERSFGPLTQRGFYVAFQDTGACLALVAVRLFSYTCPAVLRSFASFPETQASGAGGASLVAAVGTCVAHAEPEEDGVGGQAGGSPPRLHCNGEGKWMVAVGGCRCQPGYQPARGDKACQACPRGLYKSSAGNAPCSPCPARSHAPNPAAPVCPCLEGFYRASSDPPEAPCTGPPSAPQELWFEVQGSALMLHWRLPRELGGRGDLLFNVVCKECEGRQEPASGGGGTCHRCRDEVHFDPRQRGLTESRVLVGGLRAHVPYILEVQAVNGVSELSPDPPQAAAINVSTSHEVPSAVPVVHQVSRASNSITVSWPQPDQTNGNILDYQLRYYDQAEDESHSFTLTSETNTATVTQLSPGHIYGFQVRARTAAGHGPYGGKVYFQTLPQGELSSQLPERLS

T3: human EphB3 (Homo sapiens, UniProt P54753)
T3 construct: a protein of the extracellular region of each human Eph receptor fused with the SEAP protein and the His tag; made in house; host or cells: Expi293F cells
T3 sequence (P54753 34-559 limits assumed): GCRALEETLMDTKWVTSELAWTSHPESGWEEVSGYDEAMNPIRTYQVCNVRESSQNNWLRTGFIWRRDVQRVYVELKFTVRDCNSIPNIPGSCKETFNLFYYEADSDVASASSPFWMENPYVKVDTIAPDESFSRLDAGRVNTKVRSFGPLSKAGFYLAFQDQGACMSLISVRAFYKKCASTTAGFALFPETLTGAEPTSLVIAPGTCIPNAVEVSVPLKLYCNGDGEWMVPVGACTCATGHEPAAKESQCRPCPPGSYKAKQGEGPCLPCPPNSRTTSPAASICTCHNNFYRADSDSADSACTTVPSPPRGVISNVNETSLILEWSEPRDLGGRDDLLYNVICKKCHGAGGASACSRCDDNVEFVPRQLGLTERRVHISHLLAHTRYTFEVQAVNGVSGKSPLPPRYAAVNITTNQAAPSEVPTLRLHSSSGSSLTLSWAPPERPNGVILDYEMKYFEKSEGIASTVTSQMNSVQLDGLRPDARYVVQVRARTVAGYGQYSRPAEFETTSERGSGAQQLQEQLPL

B1: 69 (antibody, V domains shown)
VH: QIQLVQSGSELKKPGASVKVSCKASGYTFTDYSMHWVRQAPGQGLKWMGWINTETGEPTYADDFKGRFVFSLDTSVSTAYLQISSLKAEDTAVYYCARIPLYYYGSRYWYFDVWGQGTTVTVSS
VL: DIQMTQSPSSLSASVGDRVTITCRASENIYRNLAWYQQKPGKAPKLLVYAATNLADGVPSRFSGSGSGTDYTLTISSLQPEDFATYYCQHFWGTPWTFGQGTKVEIK
modifications: synthetic humanized antibody heavy chain variable region sequence; synthetic humanized antibody light chain variable region sequence
B2: 83 (antibody, V domains shown)
VL: B1 VL with V48L, P80S
VH: B1 VH with D62Q, D63G, K65T
modifications: constant regions without entry; synthetic humanized antibody light chain variable region sequence; synthetic humanized antibody heavy chain variable region sequence
B3: 87 (antibody, V domains shown)
VL: B1 VL with K45Q, V48L
VH: B1 VH with I2V, K46E, D62Q, D63G, K65T
modifications: constant regions without entry; synthetic humanized antibody light chain variable region sequence; synthetic humanized antibody heavy chain variable region sequence
B4: 85 (antibody, V domains shown)
VL: B1 VL with V48L, P80S
VH: B1 VH with I2V
modifications: constant regions without entry; synthetic humanized antibody light chain variable region sequence; synthetic humanized antibody heavy chain variable region sequence
B5: 88 (antibody, V domains shown)
VL: B1 VL with K45Q, V48L
VH: B1 VH with I2V, D62Q, D63G, K65T
modifications: constant regions without entry; synthetic humanized antibody light chain variable region sequence; synthetic humanized antibody heavy chain variable region sequence
B6: 81 (antibody, V domains shown)
VL: B1 VL with V48L, P80S
VH: B1 VH with I2V, K46E, D62Q, D63G, K65T
modifications: constant regions without entry; synthetic humanized antibody light chain variable region sequence; synthetic humanized antibody heavy chain variable region sequence
B7: 84 (antibody, V domains shown)
VL: B1 VL with V48L, P80S
VH: B1 VH with I2V, K46E
modifications: constant regions without entry; synthetic humanized antibody light chain variable region sequence; synthetic humanized antibody heavy chain variable region sequence
B8: 86 (antibody, V domains shown)
VL: B1 VL with V48L, P80S
VH: B1 VH
modifications: constant regions without entry; synthetic humanized antibody light chain variable region sequence; synthetic humanized antibody heavy chain variable region sequence
B9: 82 (antibody, V domains shown)
VL: B1 VL with V48L, P80S
VH: B1 VH with I2V, D62Q, D63G, K65T
modifications: constant regions without entry; synthetic humanized antibody light chain variable region sequence; synthetic humanized antibody heavy chain variable region sequence

T4 sequence (P54756 25-573 limits assumed): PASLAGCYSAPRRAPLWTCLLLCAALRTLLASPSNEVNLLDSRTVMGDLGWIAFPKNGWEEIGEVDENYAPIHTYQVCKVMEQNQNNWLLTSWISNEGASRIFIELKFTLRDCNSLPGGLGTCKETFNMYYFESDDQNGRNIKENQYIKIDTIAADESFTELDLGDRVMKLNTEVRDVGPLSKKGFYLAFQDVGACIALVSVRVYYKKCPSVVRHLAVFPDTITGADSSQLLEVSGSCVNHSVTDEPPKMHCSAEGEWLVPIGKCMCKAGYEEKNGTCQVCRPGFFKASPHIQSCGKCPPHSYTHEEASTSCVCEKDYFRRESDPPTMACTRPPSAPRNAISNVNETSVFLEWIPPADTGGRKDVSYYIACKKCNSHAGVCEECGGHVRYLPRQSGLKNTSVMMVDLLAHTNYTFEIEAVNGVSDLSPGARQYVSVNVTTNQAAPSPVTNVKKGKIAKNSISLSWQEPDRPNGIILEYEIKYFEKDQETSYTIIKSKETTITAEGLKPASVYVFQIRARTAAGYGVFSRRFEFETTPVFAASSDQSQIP

The first assay has as its target T4, human EphA5 (Homo sapiens, UniProt P54756).
T4 construct: a protein of the extracellular region of each human Eph receptor fused with the SEAP protein and the His tag; made in house; host or cells: Expi293F cells (culture supernatant)
Kind of assay: Selectivity ELISA of humanized antibodies for human Eph receptor. Conditions: coated protein 1 nM. The class given is binding. The method, boiled down: (§1)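 His-tagged SEAP fusions of each human Eph receptor extracellular region, from Expi293F supernatants, were captured at 1 nM on anti-His-coated wells. Humanized antibody was bound 1 h at room temperature, then detected with HRP […] IgG. TMB development was acid-stopped and read at 450 nm.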
Background: In an ELISA, binding on a coated surface is turned into a signal by an enzyme label.
With B1, the “hEphA5-SEAP-: absorbance at 450 nm, percentage with respect to hEphA4-SEAP-His as 100%” value was 5.6%.

Take B2: the “hEphA5-SEAP-: absorbance at 450 nm, percentage with respect to hEphA4-SEAP-His as 100%” value came out at 5.8%.

With B3, the “hEphA5-SEAP-: absorbance at 450 nm, percentage with respect to hEphA4-SEAP-His as 100%” value is listed as 5.4%.

B4: the “hEphA5-SEAP-: absorbance at 450 nm, percentage with respect to hEphA4-SEAP-His as 100%” value worked out at 5.0%.

Turning to B5, the “hEphA5-SEAP-: absorbance at 450 nm, percentage with respect to hEphA4-SEAP-His as 100%” value came out at 5.9%.

As to B6, the “hEphA5-SEAP-: absorbance at 450 nm, percentage with respect to hEphA4-SEAP-His as 100%” value is given as 4.9%.

In the case of B7, the “hEphA5-SEAP-: absorbance at 450 nm, percentage with respect to hEphA4-SEAP-His as 100%” value is 5.0%.

For the molecule B8, the “hEphA5-SEAP-: absorbance at 450 nm, percentage with respect to hEphA4-SEAP-His as 100%” value was determined as 5.7%.

B9: the “hEphA5-SEAP-: absorbance at 450 nm, percentage with respect to hEphA4-SEAP-His as 100%” value is 6.5%.

A further assay concerns the target T1, human EphA10. The assay is described as above. Conditions: coated protein 1 nM. The class given is binding. The method, boiled down:
as §1
Turning to B1, the “hEphA10-SEAP-: absorbance at 450 nm, percentage with respect to hEphA4-SEAP-His as 100%” value came out at 5.4%.

Regarding B2, the “hEphA10-SEAP-: absorbance at 450 nm, percentage with respect to hEphA4-SEAP-His as 100%” value came out at 5.6%.

Consider B3, for which the “hEphA10-SEAP-: absorbance at 450 nm, percentage with respect to hEphA4-SEAP-His as 100%” value came to 5.2%.

For the molecule B4, the “hEphA10-SEAP-: absorbance at 450 nm, percentage with respect to hEphA4-SEAP-His as 100%” value was found to be 5.0%.

On to B5, for which the “hEphA10-SEAP-: absorbance at 450 nm, percentage with respect to hEphA4-SEAP-His as 100%” value is 5.8%.

For B6, the “hEphA10-SEAP-: absorbance at 450 nm, percentage with respect to hEphA4-SEAP-His as 100%” value came out at 4.8%.

Take B7: the “hEphA10-SEAP-: absorbance at 450 nm, percentage with respect to hEphA4-SEAP-His as 100%” value worked out at 5.1%.

Consider B8, for which the “hEphA10-SEAP-: absorbance at 450 nm, percentage with respect to hEphA4-SEAP-His as 100%” value worked out at 5.6%.

Take B9: the “hEphA10-SEAP-: absorbance at 450 nm, percentage with respect to hEphA4-SEAP-His as 100%” value was 5.4%.

For the next assay, the target named is T2, human EphB6. The assay is described as above. The class given is binding. Conditions: coated protein 1 nM. The method, boiled down:
as §1
Consider B1, for which the “hEphB6-SEAP-: absorbance at 450 nm, percentage with respect to hEphA4-SEAP-His as 100%” value is given as 5.6%.

In the case of B2, the “hEphB6-SEAP-: absorbance at 450 nm, percentage with respect to hEphA4-SEAP-His as 100%” value came out at 5.8%.

For the molecule B3, the “hEphB6-SEAP-: absorbance at 450 nm, percentage with respect to hEphA4-SEAP-His as 100%” value turned out to be 5.3%.

Turning to B4, the “hEphB6-SEAP-: absorbance at 450 nm, percentage with respect to hEphA4-SEAP-His as 100%” value was found to be 5.2%.

As for B5, the “hEphB6-SEAP-: absorbance at 450 nm, percentage with respect to hEphA4-SEAP-His as 100%” value is recorded as 6.1%.

On to B6, for which the “hEphB6-SEAP-: absorbance at 450 nm, percentage with respect to hEphA4-SEAP-His as 100%” value was 5.0%.

Turning to B7, the “hEphB6-SEAP-: absorbance at 450 nm, percentage with respect to hEphA4-SEAP-His as 100%” value was determined as 4.9%.

In the case of B8, the “hEphB6-SEAP-: absorbance at 450 nm, percentage with respect to hEphA4-SEAP-His as 100%” value is 5.7%.

Consider B9, for which the “hEphB6-SEAP-: absorbance at 450 nm, percentage with respect to hEphA4-SEAP-His as 100%” value is reported as 5.5%.

The next assay addresses T3, human EphB3. Described as above. The class given is binding. Conditions: coated protein 1 nM. The method, boiled down:
as §1
Regarding B1, the “hEphB3-SEAP-: absorbance at 450 nm, percentage with respect to hEphA4-SEAP-His as 100%” value is recorded as 5.9%.

For the molecule B2, the “hEphB3-SEAP-: absorbance at 450 nm, percentage with respect to hEphA4-SEAP-His as 100%” value was 5.7%.

In the case of B3, the “hEphB3-SEAP-: absorbance at 450 nm, percentage with respect to hEphA4-SEAP-His as 100%” value is 5.5%.

Turning to B4, the “hEphB3-SEAP-: absorbance at 450 nm, percentage with respect to hEphA4-SEAP-His as 100%” value turned out to be 5.2%.

As for B5, the “hEphB3-SEAP-: absorbance at 450 nm, percentage with respect to hEphA4-SEAP-His as 100%” value stood at 6.3%.

In the case of B6, the “hEphB3-SEAP-: absorbance at 450 nm, percentage with respect to hEphA4-SEAP-His as 100%” value came out at 4.9%.

Turning to B7, the “hEphB3-SEAP-: absorbance at 450 nm, percentage with respect to hEphA4-SEAP-His as 100%” value amounted to 4.8%.

Consider B8, for which the “hEphB3-SEAP-: absorbance at 450 nm, percentage with respect to hEphA4-SEAP-His as 100%” value is on record as 5.9%.

B9: the “hEphB3-SEAP-: absorbance at 450 nm, percentage with respect to hEphA4-SEAP-His as 100%” value stood at 5.6%.
